{"source": "IntAct's records for PubMed 17803912", "parents": {"B1": {"name": "Lymphocyte antigen 96 (Homo sapiens), Q9Y6Y9 (parent)", "chain": "MLPFLFFSTLFSSIFTEAQKQYWVCNSSDASISYTYCDKMQYPISINVNPCIELKRSKGLLHIFYIPRRDLKQLYFNLYITVNTMNLPKRKEVICRGSDDDYSFCRALKGETVNTTISFSFKGIKFSKGKYKCVVEAISGSPEEMLFCLEFVILHQPNSN"}}, "data": [{"variants_of": "B1", "settings": "with tlr4_human TLR4, O00206", "values": [{"variant": "MLPFLFFSTLFSSIFTEAQKQYWVCNSSDASISYTYCDKMQYPISINVNPCIELKRSKGLLHIFYIPRRDLKQLYFNLYITVNTMNLPKRKEVICRGSDDDYSFCRALKGETVNTTISFSFKGIKASKGKYKCVVEAISGSPEEMLFCLEFVILHQPNSN", "effect of a mutation on the interaction": "disrupting interaction"}, {"variant": "MLPFLFFSTLFSSIFTEAQKQYWVCNSSDASISYTYCDKMQYPISINVNPCIELKRSKGLLHIFYIPRRDLKQLYFNLYITVNTMNLPKRKEVICRGSDDDYSFCRALKGETVNTTISFSFKGIKFSKGKYKCVVEAISGSPEEMLFCLEFVILAQPNSN", "effect of a mutation on the interaction": "disrupting interaction"}]}]}
